In one data set the target is Asp97 (UniProt position 97, VFRYIDWLLTV). Conditions: cited from earlier work.
The target of the next data set is Asp121 (UniProt position 121, AYRYVDWLLTV). Conditions: cited from earlier work.
Another data set deals with T1, N2098R (Calothrix sp., UniProt Z9R0O1FWN2).
T1 construct: crystal: E. coli cell-free synthesis; retinal analysis: synthetic codon-optimized gene in pET21a, E. coli, C-terminal His-tag, DDM-solubilized
T1 sequence (Z9R0O1FWN2 8-254): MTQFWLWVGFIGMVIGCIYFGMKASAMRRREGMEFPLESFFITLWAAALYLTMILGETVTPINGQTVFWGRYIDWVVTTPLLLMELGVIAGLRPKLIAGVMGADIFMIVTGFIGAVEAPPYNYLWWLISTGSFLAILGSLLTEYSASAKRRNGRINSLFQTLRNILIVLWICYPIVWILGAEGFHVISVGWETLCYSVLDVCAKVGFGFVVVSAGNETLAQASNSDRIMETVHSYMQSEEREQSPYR
Put plainly: X-ray crystal structure ([…] Å); retinal isomer HPLC. It counts as binding. Conditions: covalent; Schiff base with Lys204; in meso crystals.

For another data set, the target named is T2, N4075R (Tolypothrix sp., UniProt Z9F5K4BE25).
T2 construct: E. coli cell-free synthesis for crystallization, in meso
T2 sequence (Z9F5K4BE25 8-259): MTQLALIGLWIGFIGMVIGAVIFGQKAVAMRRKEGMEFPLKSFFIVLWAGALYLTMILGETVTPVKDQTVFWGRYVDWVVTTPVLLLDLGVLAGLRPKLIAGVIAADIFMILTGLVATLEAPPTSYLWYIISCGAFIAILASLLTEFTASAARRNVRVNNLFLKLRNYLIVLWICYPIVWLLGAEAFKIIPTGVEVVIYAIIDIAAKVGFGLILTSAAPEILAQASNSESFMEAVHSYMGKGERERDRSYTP
The data set can be described thus: X-ray crystal structure ([…] Å). Type of data set: binding. To be noted: covalent; Schiff base lysine; isomer not stated for this protein.

Another data set has as its target Asp85 (UniProt position 98, WARYADWLFTT). To be noted: cited from earlier work.
The target in another data set is Asp74 (position 74, …). The data set can be described thus: UV-vis. Conditions: room temperature (approx. 25°C); 50 mM NaCl; seven-mix buffer (Tris, citric acid, MES, HEPES, MOPS, CHES, CAPS; 10 mM each); dark/unphotolysed state under room light, all-trans retinal bound, detergent-solubilised, folded (reversibility checked).

Bounds are passed on as bounds.

For “Green-absorbing proteorhodopsin (GPR) (uncultured marine gamma proteobacterium EBAC31A08)”, the pKa result with Asp97 was “Approx. 7.9”.
As for “Gloeobacter rhodopsin (GR) (Gloeobacter violaceus PCC 7421)”, the pKa entry with Asp121 is recorded as “Approx. 5.9”.
Take `CC1=C(/C=C/C(C)=C/C=C/C(C)=C/C=O)C(C)(C)CCC1` [all-trans retinal]: the “X-ray crystal structure (2.65 Å); retinal isomer HPLC” value on N2098R is reported as “the isomeric state of retinal was predominantly all-trans”. In addition, the “X-ray crystal structure (1.9 Å)” value at N4075R is “Since the two structures were almost identical, only the structure of N2098R is described”.
“Bacteriorhodopsin (BR) (Halobacterium salinarum)”: the pKa result with Asp85 is listed as “Approx. 2.6”.

B1: Cyanorhodopsin N2098R (Calothrix sp. NIES-2098) (protein)
chain: T1 sequence (Z9R0O1FWN2 8-254)
B1: the pKa with Asp74 (position 74, …) is given as under 2.0.

In general, pKa refers to the pH at which an ionisable group is half protonated.

(Values after article PMC7541481, “A unique clade of light-driven proton-pumping rhodopsins evolved in the cyanobacterial lineage” (Scientific Reports, 2020).)
